From the Immune Epitope Database (IEDB)

Experiments:
[1] = target: HLA-A*02:01; experiment: IEDB peptide-MHC binding, purified MHC/direct/fluorescence; filed as Kd, often an IC50 or EC50 that approximates it; ≥ and ≤ were set here for values at or beyond the usual limits of such assays
[2] = target: HLA-A*02:11; experiment: as above; conditions: source organism: Francisella tularensis subsp. tularensis FSC033
[3] = target: HLA-A*02:12; experiment: as above; conditions: source organism: Francisella tularensis subsp. tularensis FSC033
[4] = target: HLA-A*02:19; experiment: as above; conditions: source organism: Francisella tularensis subsp. tularensis FSC033
[5] = target: HLA-C*08:02; experiment: as above
[6] = target: HLA-C*12:03; experiment: as above; conditions: source organism: Francisella tularensis subsp. tularensis WY96-3418
[7] = target: HLA-C*03:03; experiment: as above; conditions: source organism: Mycobacterium tuberculosis C
[8] = target: HLA-C*05:01; experiment: as above
[9] = target: HLA-A*01:01; experiment: as above
[10] = target: HLA-A*03:01; experiment: as above; conditions: source organism: Brucella abortus
[11] = target: HLA-A*11:01; experiment: as above
[12] = target: HLA-A*26:02; experiment: as above
[13] = target: HLA-A*31:01; experiment: as above
[14] = target: HLA-A*68:02; experiment: as above
[15] = target: HLA-A*69:01; experiment: as above
[16] = target: HLA-B*07:02; experiment: as above
[17] = target: HLA-B*08:02; experiment: as above
[18] = target: HLA-B*15:01; experiment: as above
[19] = target: HLA-B*15:02; experiment: as above
[20] = target: HLA-B*15:09; experiment: as above
[21] = target: HLA-B*15:17; experiment: as above
[22] = target: HLA-B*27:05; experiment: as above
[23] = target: HLA-B*46:01; experiment: as above
[24] = target: HLA-B*48:01; experiment: as above
[25] = target: HLA-B*57:01; experiment: as above
[26] = target: HLA-B*58:01; experiment: as above
[27] = target: HLA-B*07:02; experiment: IEDB peptide-MHC binding, purified MHC/competitive/fluorescence; ≥ and ≤ were set here for values at or beyond the usual limits of such assays; conditions: source organism: Zaire ebolavirus
[28] = target: HLA-A*02:01; experiment: IEDB peptide-MHC binding, purified MHC/competitive/fluorescence; filed as Kd, often an IC50 or EC50 that approximates it; ≥ and ≤ were set here for values at or beyond the usual limits of such assays; conditions: source organism: Yersinia pestis Nepal516
[29] = target: HLA-B*15:01; experiment: as above; conditions: source organism: Yersinia pestis Nepal516
[30] = target: HLA-B*39:01; experiment: as above; conditions: source organism: Yersinia pestis Nepal516
[31] = target: HLA-B*51:01; experiment: as above; conditions: source organism: Yersinia pestis Nepal516
[32] = target: HLA-B*58:01; experiment: as above; conditions: source organism: Yersinia pestis Nepal516
[33] = target: HLA-A*26:01; experiment: IEDB peptide-MHC binding, purified MHC/direct/fluorescence; filed as Kd, often an IC50 or EC50 that approximates it; ≥ and ≤ were set here for values at or beyond the usual limits of such assays; conditions: source organism: Mycobacterium tuberculosis str. Haarlem
[34] = target: HLA-A*26:03; experiment: as above; conditions: source organism: Mycobacterium tuberculosis str. Haarlem
[35] = target: HLA-B*08:01; experiment: as above
[36] = target: HLA-B*08:03; experiment: as above; conditions: source organism: Mycobacterium tuberculosis str. Haarlem
[37] = target: HLA-B*18:01; experiment: as above; conditions: source organism: Mycobacterium tuberculosis
[38] = target: HLA-B*40:01; experiment: as above; conditions: source organism: Mycobacterium tuberculosis
[39] = target: HLA-A*02:03; experiment: IEDB peptide-MHC binding, purified MHC/competitive/fluorescence; filed as Kd, often an IC50 or EC50 that approximates it; ≥ and ≤ were set here for values at or beyond the usual limits of such assays; conditions: source organism: Francisella tularensis subsp. tularensis FSC198
[40] = target: HLA-A*26:02; experiment: as above; conditions: source organism: Francisella tularensis subsp. tularensis FSC198
[41] = target: HLA-A*30:01; experiment: as above; conditions: source organism: Francisella tularensis subsp. tularensis FSC198
[42] = target: HLA-B*15:17; experiment: as above; conditions: source organism: Francisella tularensis subsp. tularensis FSC198
[43] = target: HLA-B*35:01; experiment: as above; conditions: source organism: Francisella tularensis subsp. tularensis FSC198
[44] = target: HLA-A*02:01; experiment: IEDB peptide-MHC binding, purified MHC/competitive/fluorescence; ≥ and ≤ were set here for values at or beyond the usual limits of such assays; conditions: source organism: Zaire ebolavirus
[45] = target: HLA-A*11:01; experiment: as above; conditions: source organism: Zaire ebolavirus
[46] = target: HLA-A*24:02; experiment: as above; conditions: source organism: Zaire ebolavirus
[47] = target: HLA-B*15:01; experiment: as above; conditions: source organism: Zaire ebolavirus
[48] = source organism: Francisella tularensis subsp. holarctica LVS
[49] = source organism: Mycobacterium tuberculosis C
[50] = source organism: Brucella abortus
[51] = source organism: Brucella suis 1330
[52] = source organism: Yersinia pestis Nepal516
[53] = source organism: Mycobacterium tuberculosis
[54] = source organism: Mycobacterium tuberculosis str. Haarlem
[55] = source organism: Francisella tularensis subsp. tularensis FSC033

YLYPWSLGL
Kd [1, 48]: ≤ 0.001 µM | Kd [2]: ≤ 0.001 µM | Kd [3]: 0.002 µM | Kd [4]: 0.012 µM | Kd ([5]; source organism: Francisella tularensis subsp. tularensis WY96-3418): ≥ 20 µM | Kd [6]: 0.004 µM

YLDAIQQPV
Kd [7]: 0.256 µM | Kd [8, 49]: 0.025 µM | Kd [5, 49]: ≤ 0.001 µM

GLAEKPNDY
Kd [9, 50]: ≥ 20 µM | Kd [1, 50]: ≥ 20 µM | Kd [10]: ≥ 20 µM | Kd [11, 50]: ≥ 20 µM | Kd [12, 51]: ≥ 20 µM | Kd [13, 50]: ≥ 20 µM | Kd [14, 50]: ≥ 20 µM | Kd [15, 50]: ≥ 20 µM | Kd [16, 50]: ≥ 20 µM | Kd [17, 51]: ≥ 20 µM | Kd [18, 50]: 0.947 µM | Kd [19, 50]: 2 µM | Kd [20, 51]: ≥ 20 µM | Kd [21, 50]: ≥ 20 µM | Kd [22, 50]: ≥ 20 µM | Kd [23, 50]: ≥ 20 µM | Kd [24, 50]: ≥ 20 µM | Kd [25, 50]: ≥ 20 µM | Kd [26, 50]: ≥ 20 µM

SPQNHSETA
IC50 [27]: 45.2 µM

FSYNVAYAI
Kd [8, 52]: 4.96 µM | Kd [5, 52]: 0.182 µM | Kd [28]: 0.0296 µM | Kd [29]: ≥ 20 µM | Kd [30]: 0.469 µM | Kd [31]: 2.27 µM | Kd [32]: 0.0363 µM

KYFVRSTEK
Kd [9, 53]: ≥ 20 µM | Kd [1, 53]: ≥ 20 µM | Kd [11, 53]: 1.79 µM | Kd [33]: ≥ 20 µM | Kd [12, 54]: ≥ 20 µM | Kd [34]: ≥ 20 µM | Kd [13, 53]: 0.0021 µM | Kd [14, 53]: ≥ 20 µM | Kd [16, 53]: ≥ 20 µM | Kd [35, 54]: ≥ 20 µM | Kd [17, 54]: ≥ 20 µM | Kd [36]: ≥ 20 µM | Kd [18, 53]: ≥ 20 µM | Kd [21, 53]: ≥ 20 µM | Kd [37]: ≥ 20 µM | Kd [22, 53]: ≥ 20 µM | Kd [38]: ≥ 20 µM | Kd [23, 53]: ≥ 20 µM | Kd [24, 53]: ≥ 20 µM | Kd [25, 53]: ≥ 20 µM | Kd [26, 53]: ≥ 20 µM

FQVNRFTGY
Kd [9, 48]: ≥ 20 µM | Kd [1, 48]: ≥ 20 µM | Kd [11, 48]: ≥ 20 µM | Kd [13, 48]: ≥ 20 µM | Kd [14, 48]: ≥ 20 µM | Kd [15, 48]: ≥ 20 µM | Kd [16, 48]: ≥ 20 µM | Kd [35, 55]: ≥ 20 µM | Kd [18, 48]: 0.0097 µM | Kd [19, 55]: 0.008 µM | Kd [20, 55]: ≥ 20 µM | Kd [22, 48]: 0.632 µM | Kd [23, 48]: ≥ 20 µM | Kd [24, 48]: ≥ 20 µM | Kd [25, 48]: ≥ 20 µM | Kd [26, 48]: ≥ 20 µM | Kd [39]: ≥ 20 µM | Kd [40]: 0.113 µM | Kd [41]: ≥ 20 µM | Kd [42]: ≥ 20 µM | Kd [43]: 4.41 µM

RTNFLIKFL
IC50 [44]: ≥ 165 µM | IC50 [45]: ≥ 589 µM | IC50 [46]: 10.2 µM | IC50 [27]: ≥ 275 µM | IC50 [47]: ≥ 725 µM
